{
  "source": "the supplement of paper PMC9170038",
  "key": {"MS2 coat protein [1]": {"test_system": "MS2 coat protein", "experiment": "apparent KD of MS2 coat protein, switch OFF state (with FMN for OFF switches, without FMN for ON switches); designed switch direction (-1 OFF switch, 1 ON switch): 1; higher = weaker reporter binding", "conditions": "FMN input: 0 or 200 uM; Eterna round: R93 (includes R88 designs)", "in_short": "(§1)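 Titration buffer: 100 mM Tris-HCl pH 7.5, 80 mM KCl, 4 mM MgCl2, without or with constant ligand. Designed RNA switches transcribed on-chip from Illumina sequencing clusters received SNAP-549-labelled MS2 coat protein in twofold steps from 0.7 or 1.5 nM to 3 µM. Apparent KD is the median per design of fits to normalised cluster binding curves.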"}, "MS2 coat protein [2]": {"test_system": "MS2 coat protein", "experiment": "apparent KD of MS2 coat protein, switch ON state; designed switch direction (-1 OFF switch, 1 ON switch): 1; higher = weaker reporter binding", "conditions": "FMN input: 0 or 200 uM; Eterna round: R93 (includes R88 designs)", "in_short": "as §1"}},
  "data": [
    {"sequence": "GGUACAUCUAGUUAGGAUAUCAGGUGUAAGACAUGAGGAUCACCCAUGUCCUAAGAACAGGUAACUGAGAAGGAACAGGGAGUCC [JR_SS002_Sub416]", "values": [
      {"measurement": "apparent KD of MS2 coat protein", "setting": "MS2 coat protein [1]", "value": 0.133, "unit": "µM"},
      {"measurement": "apparent KD of MS2 coat protein", "setting": "MS2 coat protein [2]", "value": 0.0646, "unit": "µM"}
    ]},
    {"sequence": "GAACCACAUGAGGAUCACCCAUGUCAAAGAAAUCAAGGAUAUGCACAAAAGGAAAUAACUGCAGAAGGUGAACGAA [62%, Redo, 1]", "values": [
      {"measurement": "apparent KD of MS2 coat protein", "setting": "MS2 coat protein [1]", "value": 0.0409, "unit": "µM"},
      {"measurement": "apparent KD of MS2 coat protein", "setting": "MS2 coat protein [2]", "value": 0.0226, "unit": "µM"}
    ]},
    {"sequence": "AGGAGACAUGAGGAUCACCCAUGUGCACGGUGAAGAGGAUAUGUGCGUGGAGAGACACGGACAGAAGGCUUAAGAA [JR_SameState1_Sub5]", "values": [
      {"measurement": "apparent KD of MS2 coat protein", "setting": "MS2 coat protein [1]", "value": 0.0389, "unit": "µM"},
      {"measurement": "apparent KD of MS2 coat protein", "setting": "MS2 coat protein [2]", "value": 0.023, "unit": "µM"}
    ]},
    {"sequence": "AAACAGAUAGGACAGGAUAUGUCGUGAUAAACAUGAGGAUCACCCAUGUGAGACAUCACGUAAUCGCAGAAGGGUCCCGUCUUAC [Usonsoave]", "values": [
      {"measurement": "apparent KD of MS2 coat protein", "setting": "MS2 coat protein [1]", "value": 0.0127, "unit": "µM"},
      {"measurement": "apparent KD of MS2 coat protein", "setting": "MS2 coat protein [2]", "value": 0.0111, "unit": "µM"}
    ]},
    {"sequence": "AGAAAUAAACCGAAGGAUAUCUAAACCUAAACAUGAGGAUCACCCAUGUAAAAGAAAAUAAAAUGGGAGAAGGUCGGAAAUAAGA [Designing denovo 12]", "values": [
      {"measurement": "apparent KD of MS2 coat protein", "setting": "MS2 coat protein [1]", "value": 0.0299, "unit": "µM"},
      {"measurement": "apparent KD of MS2 coat protein", "setting": "MS2 coat protein [2]", "value": 0.0175, "unit": "µM"}
    ]},
    {"sequence": "AACAAUCUAUCUGAGGAUAUCAUGUCAAAGACAUGAGGAUCACCCAUGUCCAGGAAAACUGGAUAUGAGAAGGCAGAUAGAUUGA [SS2: 1105]", "values": [
      {"measurement": "apparent KD of MS2 coat protein", "setting": "MS2 coat protein [1]", "value": 3.31, "unit": "µM"},
      {"measurement": "apparent KD of MS2 coat protein", "setting": "MS2 coat protein [2]", "value": 0.179, "unit": "µM"}
    ]},
    {"sequence": "AAUACAAAUAGUCAGGAUAUCAAAAAUAAGACAUGAGGAUCACCCAUGUAAUAAGUAAAAGUAAAUGAGAAGGGACAGGGUGAAA [JR_SS002_Sub401]", "values": [
      {"measurement": "apparent KD of MS2 coat protein", "setting": "MS2 coat protein [1]", "value": 0.0592, "unit": "µM"},
      {"measurement": "apparent KD of MS2 coat protein", "setting": "MS2 coat protein [2]", "value": 0.53, "unit": "µM"}
    ]},
    {"sequence": "AAAUAAAAAAAAAAGGAUAUUCAUGUGAAAACAUGAGGAUCACCCAUGUAAAAAAAUAAAAAUAAAAAGAAGGAAAAAUAAAAAA [SS2: 86 No MS2]", "values": [
      {"measurement": "apparent KD of MS2 coat protein", "setting": "MS2 coat protein [1]", "value": 0.841, "unit": "µM"},
      {"measurement": "apparent KD of MS2 coat protein", "setting": "MS2 coat protein [2]", "value": 0.571, "unit": "µM"}
    ]},
    {"sequence": "AAGAAAGUUUACGAGGAUAUGUUCCGCAGAACAUGAGGAUCACCCAUGUGAACAAGAAAGGCGACGCAGAAGGCGUGAGCUAUGA [Anesdien]", "values": [
      {"measurement": "apparent KD of MS2 coat protein", "setting": "MS2 coat protein [1]", "value": 0.106, "unit": "µM"},
      {"measurement": "apparent KD of MS2 coat protein", "setting": "MS2 coat protein [2]", "value": 0.0327, "unit": "µM"}
    ]},
    {"sequence": "AUAAAAUAAAAGGAGGAUAUCCAUAAUAAAACAUGAGGAUCACCCAUGUAAAAAAGAAGAAAAUGGGAGAAGGCCUAAAAUAAAU [SS2 M 27]", "values": [
      {"measurement": "apparent KD of MS2 coat protein", "setting": "MS2 coat protein [1]", "value": 0.0236, "unit": "µM"},
      {"measurement": "apparent KD of MS2 coat protein", "setting": "MS2 coat protein [2]", "value": 0.0114, "unit": "µM"}
    ]},
    {"sequence": "GAAAAACAUGAGGAUCACCCAUGUAGAAAUAUGGGAGGAUAUACAAAGACGAAAGUCAAAGUAGAAGGCCUGAAAG [77%, Mat - Mod of Eli, 1]", "values": [
      {"measurement": "apparent KD of MS2 coat protein", "setting": "MS2 coat protein [1]", "value": 0.136, "unit": "µM"},
      {"measurement": "apparent KD of MS2 coat protein", "setting": "MS2 coat protein [2]", "value": 0.0271, "unit": "µM"}
    ]},
    {"sequence": "AAAGGGAUUACGGAGGAUAUGGAAAAAAAAACAUGAGGAUCACCCAUGUCAAAAAAAAAAAAGGACCAGAAGGCCGUAAUCUCAAA [hsl_samestate2]", "values": [
      {"measurement": "apparent KD of MS2 coat protein", "setting": "MS2 coat protein [1]", "value": 0.0226, "unit": "µM"},
      {"measurement": "apparent KD of MS2 coat protein", "setting": "MS2 coat protein [2]", "value": 0.0199, "unit": "µM"}
    ]},
    {"sequence": "AAUAAACAUGAGGAUCACCCAUGUAAUAAUAUGGGAGGAUAUACUAAAAUAAAAUAAAAUGUAGAAGGCCUAAUAA [LROPPY Same State 1 - v05_deltaG=1.05 break up the As]", "values": [
      {"measurement": "apparent KD of MS2 coat protein", "setting": "MS2 coat protein [1]", "value": 0.159, "unit": "µM"},
      {"measurement": "apparent KD of MS2 coat protein", "setting": "MS2 coat protein [2]", "value": 0.0355, "unit": "µM"}
    ]},
    {"sequence": "AUAAAAUAAACUGAGGAUAUCUAUAAUAAAACAUGAGGAUCACCCAUGUUUAAACAAAGAUCAUGGGAGAAGGCAGAAAAUAAAU [SS2 M 38]", "values": [
      {"measurement": "apparent KD of MS2 coat protein", "setting": "MS2 coat protein [1]", "value": 0.0366, "unit": "µM"},
      {"measurement": "apparent KD of MS2 coat protein", "setting": "MS2 coat protein [2]", "value": 0.0378, "unit": "µM"}
    ]},
    {"sequence": "AAUACACAUGGUCAGGAUAUCGCAGCUAGGACAUGAGGAUCACCCAUGUCGUAAGUAAAAGUAAAUGAGAAGGGACAGGGUGACC [JR_SS002_Sub406]", "values": [
      {"measurement": "apparent KD of MS2 coat protein", "setting": "MS2 coat protein [1]", "value": 0.0282, "unit": "µM"},
      {"measurement": "apparent KD of MS2 coat protein", "setting": "MS2 coat protein [2]", "value": 0.133, "unit": "µM"}
    ]},
    {"sequence": "AAGAAACAUGAGGAUCACCCAUGUAGAAACAUGGGAGGAUAUACAAAGACGAAAGUCAAAGUAGAAGGCCUAAGAA [Mat - Same State 1 - Mod - D164]", "values": [
      {"measurement": "apparent KD of MS2 coat protein", "setting": "MS2 coat protein [1]", "value": 0.0635, "unit": "µM"},
      {"measurement": "apparent KD of MS2 coat protein", "setting": "MS2 coat protein [2]", "value": 0.102, "unit": "µM"}
    ]},
    {"sequence": "AGAAAUAAAAGAGAGGAUAUCCAAAAGAAAACAUGAGGAUCACCCAUGUAAAAGAAAAUAAAAUGGGAGAAGGCUCAUGAUAAAG [JL In the Red Helter Skelter 2 mod 1]", "values": [
      {"measurement": "apparent KD of MS2 coat protein", "setting": "MS2 coat protein [1]", "value": 0.0358, "unit": "µM"},
      {"measurement": "apparent KD of MS2 coat protein", "setting": "MS2 coat protein [2]", "value": 0.042, "unit": "µM"}
    ]},
    {"sequence": "GGAAAACAUGAGGAUCACCCAUGUGAAAACGUGGGAGGAUAUCGAUGGAAACCAUACUGUCGAGAAGGCCCAUGUC [EteRNA is fun!]", "values": [
      {"measurement": "apparent KD of MS2 coat protein", "setting": "MS2 coat protein [1]", "value": 0.0472, "unit": "µM"},
      {"measurement": "apparent KD of MS2 coat protein", "setting": "MS2 coat protein [2]", "value": 0.0185, "unit": "µM"}
    ]},
    {"sequence": "GAUAAACAUGAGGAUCACCCAUGUAGAAAUAUGGGAGGAUAUACGAAGACGAAAGUCAAAGUAGAAGGCCUAAAAG [Mat - Same State 1 - Eli mod - D114]", "values": [
      {"measurement": "apparent KD of MS2 coat protein", "setting": "MS2 coat protein [1]", "value": 0.0526, "unit": "µM"},
      {"measurement": "apparent KD of MS2 coat protein", "setting": "MS2 coat protein [2]", "value": 0.0239, "unit": "µM"}
    ]},
    {"sequence": "GAAGACAUAGUUCAGGAUAUAGGAAUAGUCACAUGAGGAUCACCCAUGUGCAUUUAUAUGCGCGCUUAGAAGGGAGGUAGAUAAU [Mat - Same state - Malcolm Mod - D119]", "values": [
      {"measurement": "apparent KD of MS2 coat protein", "setting": "MS2 coat protein [1]", "value": 0.0212, "unit": "µM"},
      {"measurement": "apparent KD of MS2 coat protein", "setting": "MS2 coat protein [2]", "value": 0.0245, "unit": "µM"}
    ]},
    {"sequence": "AGAAAUAAAAGACAGGAUAUCCAAACUCAAACAUGAGGAUCACCCAUGUAAAAGAAAAUAAAGUGGGAGAAGGGUCAAAAUAAGA [Jieux modified + C segment V4]", "values": [
      {"measurement": "apparent KD of MS2 coat protein", "setting": "MS2 coat protein [1]", "value": 0.0331, "unit": "µM"},
      {"measurement": "apparent KD of MS2 coat protein", "setting": "MS2 coat protein [2]", "value": 0.0126, "unit": "µM"}
    ]}
  ]
}
